Test results: article PMC5171882, “Metagenomic mining for thermostable esterolytic enzymes uncovers a new family of bacterial esterases” (Scientific Reports, 2016)

Key:
Assay in all cases: purified protein
Format in all cases: biochemical, uncultured Acetothermia bacterium
Settings in all cases: standard reaction: 25 mM Tris-HCl pH 8, 0.05% Triton X-100, 50 °C
[1] = substrate: CCCCCCCC(=O)Oc1ccc([N+](=O)[O-])cc1
[2] = substrate: CCCC(=O)Oc1ccc([N+](=O)[O-])cc1
[3] = substrate: CC(=O)Oc1ccc([N+](=O)[O-])cc1
[4] = substrate: CCCCCCCCCC(=O)Oc1ccc([N+](=O)[O-])cc1

B1: EstDZ2 (uncultured Acetothermia bacterium) (protein)
chain: APPFSFQVYTDVVYYDGPDAHPTKHRLDLFVPDGLQDAPVLIFVHGGGWTSGDKNLYAFIGQAFAAQGFATAVINYRLSPQVQHPAHIEDVARAFSWVYKNIARYGGNPEKIFVTGHSAGGHLTALLALDEKYLQAHGLTLAAIKGAIPISGVYDVTPVLALYRTVFGADPDQRWDASPLAHVGPNKPPFLILYAQFDFPGLGLQAQQLFAELRTHNNEATLTEIPNRDHVTIVATIGASNDPTTEEI
notes: predicted signal peptide (aa 2-21) replaced by N-terminal hexa-histidine tag, kept; E. coli BL21(DE3); Ni-NTA; monomer, ~29 kDa; HGGG and GHSAG motifs; primer encodes APPFSF after His tag
Q: For B1, which Km [1] is on record?
A: 0.20 ± 0.02 mM

Q: And the kcat/Km [1]?
A: 1.04e+07 M⁻¹ s⁻¹

Q: What about the Km [2] of the same protein?
A: 0.32 ± 0.09 mM

Q: And the kcat/Km [2]?
A: 1.44e+07 M⁻¹ s⁻¹

Q: What about the Km [3] of the same protein?
A: 0.67 ± 0.15 mM

Q: And the kcat/Km [3]?
A: 1.76e+06 M⁻¹ s⁻¹

Q: What about the Km [4] of the same protein?
A: 0.12 ± 0.01 mM

Q: And the kcat/Km [4]?
A: 7.55e+06 M⁻¹ s⁻¹
